Data reported in article doi:10.1101/2023.07.14.549122.

T1: short pAgo (SPARTA);TIR-APAZ (SPARTA) (Crenotalea thermophila;Crenotalea …, UniProt A0A1I7NFD7;A0A1I7NFG5 1-507;1-450, |)
T1 sequence 1: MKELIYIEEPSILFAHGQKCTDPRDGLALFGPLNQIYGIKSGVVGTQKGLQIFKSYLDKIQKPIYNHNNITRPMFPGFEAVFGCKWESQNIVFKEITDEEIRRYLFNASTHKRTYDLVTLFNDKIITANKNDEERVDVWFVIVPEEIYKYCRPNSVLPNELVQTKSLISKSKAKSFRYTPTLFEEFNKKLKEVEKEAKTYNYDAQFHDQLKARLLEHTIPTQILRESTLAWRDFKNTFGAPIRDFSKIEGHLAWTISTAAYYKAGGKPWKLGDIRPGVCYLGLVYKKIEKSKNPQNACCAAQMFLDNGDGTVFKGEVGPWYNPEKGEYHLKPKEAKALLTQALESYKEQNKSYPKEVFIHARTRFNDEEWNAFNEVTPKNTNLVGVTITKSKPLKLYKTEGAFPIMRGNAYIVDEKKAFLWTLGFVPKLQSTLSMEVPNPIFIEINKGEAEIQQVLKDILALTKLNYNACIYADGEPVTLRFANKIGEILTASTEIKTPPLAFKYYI
T1 sequence 2: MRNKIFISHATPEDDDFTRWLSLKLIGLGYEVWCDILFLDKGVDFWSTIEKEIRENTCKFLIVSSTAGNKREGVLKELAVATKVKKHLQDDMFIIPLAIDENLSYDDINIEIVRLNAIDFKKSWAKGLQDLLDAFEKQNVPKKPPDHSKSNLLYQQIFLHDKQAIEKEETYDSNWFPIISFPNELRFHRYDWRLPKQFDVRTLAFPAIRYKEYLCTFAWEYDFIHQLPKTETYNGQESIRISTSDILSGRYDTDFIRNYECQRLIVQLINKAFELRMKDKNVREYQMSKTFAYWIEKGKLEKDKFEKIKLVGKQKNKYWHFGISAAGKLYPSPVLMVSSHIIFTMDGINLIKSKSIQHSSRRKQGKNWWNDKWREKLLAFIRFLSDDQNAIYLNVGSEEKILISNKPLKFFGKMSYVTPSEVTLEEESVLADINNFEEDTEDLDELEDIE


Assays:
[1] = biological target: Crenotalea thermophila SPARTA complex (heterodimer of TIR-APAZ and short pAgo) (Crenotalea thermophila); assay: cryo-EM structure
[2] = biological target: T1, short pAgo (SPARTA);TIR-APAZ (SPARTA); assay: cryoEM structure

stoichiometry N [1]	Molecule	binding result [2]
4	Crenotalea thermophila SPARTA complex (heterodimer of TIR-APAZ and short pAgo)	
	gRNA-target ssDNA (25 nt target) (DNA:RNA, 5'-phosphate on gRNA) RNA: AAACGGCUCUAAUCUAUUAGU DNA: CAACTAATAGATTAGAGCCGTTTAT	binds
